{"source": "the supplement of paper PMC10567573", "parents": {"B1": {"name": "CD207 (parent)", "chain": "MTVEKEAPDAHFTVDKQNISLWPR"}}}
{"variants_of": "B1", "assay": "protein stability index of a GFP-peptide fusion (GPS, HEK-293T) (PSI 1-6); higher = more stable", "conditions": "c terminus: a fixed tail appended"}
{"variant": "MTVRKEAPDAHFTVDKQNISLWPR", "note": "[E4R]", "protein stability index": 3.02}
{"variant": "MTVHKEAPDAHFTVDKQNISLWPR", "note": "[E4H]", "protein stability index": 3}
{"variant": "MTVNKEAPDAHFTVDKQNISLWPR", "note": "[E4N]", "protein stability index": 2.86}
{"variant": "MTVQKEAPDAHFTVDKQNISLWPR", "note": "[E4Q]", "protein stability index": 3.92}
{"variant": "MTVVKEAPDAHFTVDKQNISLWPR", "note": "[E4V]", "protein stability index": 3.38}
{"variant": "MTVWKEAPDAHFTVDKQNISLWPR", "note": "[E4W]", "protein stability index": 1.99}
{"variant": "MTVIKEAPDAHFTVDKQNISLWPR", "note": "[E4I]", "protein stability index": 2.56}
{"variant": "MTVCKEAPDAHFTVDKQNISLWPR", "note": "[E4C]", "protein stability index": 3.11}
{"variant": "MTVTKEAPDAHFTVDKQNISLWPR", "note": "[E4T]", "protein stability index": 2.77}
{"variant": "MTVSKEAPDAHFTVDKQNISLWPR", "note": "[E4S]", "protein stability index": 3.68}
{"variant": "MTVFKEAPDAHFTVDKQNISLWPR", "note": "[E4F]", "protein stability index": 2.28}
{"variant": "MTVAKEAPDAHFTVDKQNISLWPR", "note": "[E4A]", "protein stability index": 3.17}
{"variant": "MTVGKEAPDAHFTVDKQNISLWPR", "note": "[E4G]", "protein stability index": 3.37}
{"variant": "MTVYKEAPDAHFTVDKQNISLWPR", "note": "[E4Y]", "protein stability index": 2.43}
{"variant": "MTVLKEAPDAHFTVDKQNISLWPR", "note": "[E4L]", "protein stability index": 2.79}
{"variant": "MTVDKEAPDAHFTVDKQNISLWPR", "note": "[E4D]", "protein stability index": 3.67}
{"variant": "MTVMKEAPDAHFTVDKQNISLWPR", "note": "[E4M]", "protein stability index": 3.2}
{"variant": "MTVPKEAPDAHFTVDKQNISLWPR", "note": "[E4P]", "protein stability index": 3.18}
{"variant": "MTMEKEAPDAHFTVDKQNISLWPR", "note": "[V3M]", "protein stability index": 3.09}
{"variant": "MTEEKEAPDAHFTVDKQNISLWPR", "note": "[V3E]", "protein stability index": 3.72}
{"variant": "MTAEKEAPDAHFTVDKQNISLWPR", "note": "[V3A]", "protein stability index": 3.47}
{"variant": "MTTEKEAPDAHFTVDKQNISLWPR", "note": "[V3T]", "protein stability index": 3.57}
{"variant": "MTNEKEAPDAHFTVDKQNISLWPR", "note": "[V3N]", "protein stability index": 3.93}
{"variant": "MTYEKEAPDAHFTVDKQNISLWPR", "note": "[V3Y]", "protein stability index": 2.75}
{"variant": "MTSEKEAPDAHFTVDKQNISLWPR", "note": "[V3S]", "protein stability index": 3.55}
{"variant": "MTGEKEAPDAHFTVDKQNISLWPR", "note": "[V3G]", "protein stability index": 3.19}
{"variant": "MTLEKEAPDAHFTVDKQNISLWPR", "note": "[V3L]", "protein stability index": 3.44}
{"variant": "MTDEKEAPDAHFTVDKQNISLWPR", "note": "[V3D]", "protein stability index": 4.12}
{"variant": "MTPEKEAPDAHFTVDKQNISLWPR", "note": "[V3P]", "protein stability index": 4.07}
{"variant": "MTCEKEAPDAHFTVDKQNISLWPR", "note": "[V3C]", "protein stability index": 2.68}
{"variant": "MTIEKEAPDAHFTVDKQNISLWPR", "note": "[V3I]", "protein stability index": 3.33}
{"variant": "MTWEKEAPDAHFTVDKQNISLWPR", "note": "[V3W]", "protein stability index": 2.86}
{"variant": "MTFEKEAPDAHFTVDKQNISLWPR", "note": "[V3F]", "protein stability index": 2.85}
{"variant": "MTHEKEAPDAHFTVDKQNISLWPR", "note": "[V3H]", "protein stability index": 3.54}
{"variant": "MTQEKEAPDAHFTVDKQNISLWPR", "note": "[V3Q]", "protein stability index": 3.42}
{"variant": "MTREKEAPDAHFTVDKQNISLWPR", "note": "[V3R]", "protein stability index": 3.9}
{"variant": "MTKEKEAPDAHFTVDKQNISLWPR", "note": "[V3K]", "protein stability index": 3.79}
{"variant": "TTVEKEAPDAHFTVDKQNISLWPR", "note": "[M1T]", "protein stability index": 3.45}
{"variant": "WTVEKEAPDAHFTVDKQNISLWPR", "note": "[M1W]", "protein stability index": 3.13}
{"variant": "VTVEKEAPDAHFTVDKQNISLWPR", "note": "[M1V]", "protein stability index": 3.76}
{"variant": "YTVEKEAPDAHFTVDKQNISLWPR", "note": "[M1Y]", "protein stability index": 2.37}
{"variant": "STVEKEAPDAHFTVDKQNISLWPR", "note": "[M1S]", "protein stability index": 3.57}
{"variant": "MRVEKEAPDAHFTVDKQNISLWPR", "note": "[T2R]", "protein stability index": 2.83}
{"variant": "MNVEKEAPDAHFTVDKQNISLWPR", "note": "[T2N]", "protein stability index": 3.36}
{"variant": "MKVEKEAPDAHFTVDKQNISLWPR", "note": "[T2K]", "protein stability index": 3.65}
{"variant": "MSVEKEAPDAHFTVDKQNISLWPR", "note": "[T2S]", "protein stability index": 3.57}
{"variant": "MIVEKEAPDAHFTVDKQNISLWPR", "note": "[T2I]", "protein stability index": 2.94}
{"variant": "MLVEKEAPDAHFTVDKQNISLWPR", "note": "[T2L]", "protein stability index": 3.17}
{"variant": "MMVEKEAPDAHFTVDKQNISLWPR", "note": "[T2M]", "protein stability index": 3.86}
{"variant": "MWVEKEAPDAHFTVDKQNISLWPR", "note": "[T2W]", "protein stability index": 2.59}
{"variant": "MQVEKEAPDAHFTVDKQNISLWPR", "note": "[T2Q]", "protein stability index": 3.54}
{"variant": "MFVEKEAPDAHFTVDKQNISLWPR", "note": "[T2F]", "protein stability index": 2.71}
{"variant": "MAVEKEAPDAHFTVDKQNISLWPR", "note": "[T2A]", "protein stability index": 3.35}
{"variant": "MHVEKEAPDAHFTVDKQNISLWPR", "note": "[T2H]", "protein stability index": 3.08}
{"variant": "MVVEKEAPDAHFTVDKQNISLWPR", "note": "[T2V]", "protein stability index": 3.21}
{"variant": "MCVEKEAPDAHFTVDKQNISLWPR", "note": "[T2C]", "protein stability index": 2.54}
{"variant": "MDVEKEAPDAHFTVDKQNISLWPR", "note": "[T2D]", "protein stability index": 3.62}
{"variant": "MYVEKEAPDAHFTVDKQNISLWPR", "note": "[T2Y]", "protein stability index": 2.18}
{"variant": "MGVEKEAPDAHFTVDKQNISLWPR", "note": "[T2G]", "protein stability index": 3.68}
{"variant": "MTVEKRAPDAHFTVDKQNISLWPR", "note": "[E6R]", "protein stability index": 2.74}
{"variant": "MTVEKIAPDAHFTVDKQNISLWPR", "note": "[E6I]", "protein stability index": 2.37}
{"variant": "MTVEKVAPDAHFTVDKQNISLWPR", "note": "[E6V]", "protein stability index": 2.05}
{"variant": "MTVEKGAPDAHFTVDKQNISLWPR", "note": "[E6G]", "protein stability index": 3.27}
{"variant": "MTVEKCAPDAHFTVDKQNISLWPR", "note": "[E6C]", "protein stability index": 2.32}
{"variant": "MTVEKHAPDAHFTVDKQNISLWPR", "note": "[E6H]", "protein stability index": 2.83}
{"variant": "MTVEKAAPDAHFTVDKQNISLWPR", "note": "[E6A]", "protein stability index": 3.21}
{"variant": "MTVEKSAPDAHFTVDKQNISLWPR", "note": "[E6S]", "protein stability index": 3.01}
{"variant": "MTVEKTAPDAHFTVDKQNISLWPR", "note": "[E6T]", "protein stability index": 3.08}
{"variant": "MTVEKNAPDAHFTVDKQNISLWPR", "note": "[E6N]", "protein stability index": 3.23}
{"variant": "MTVEKLAPDAHFTVDKQNISLWPR", "note": "[E6L]", "protein stability index": 2.72}
{"variant": "MTVEKKAPDAHFTVDKQNISLWPR", "note": "[E6K]", "protein stability index": 3.47}
{"variant": "MTVEKMAPDAHFTVDKQNISLWPR", "note": "[E6M]", "protein stability index": 2.52}
{"variant": "MTVEKDAPDAHFTVDKQNISLWPR", "note": "[E6D]", "protein stability index": 3.31}
{"variant": "MTVEKPAPDAHFTVDKQNISLWPR", "note": "[E6P]", "protein stability index": 3.14}
{"variant": "MTVEKFAPDAHFTVDKQNISLWPR", "note": "[E6F]", "protein stability index": 2.27}
{"variant": "MTVEKQAPDAHFTVDKQNISLWPR", "note": "[E6Q]", "protein stability index": 3.25}
{"variant": "MTVELEAPDAHFTVDKQNISLWPR", "note": "[K5L]", "protein stability index": 1.86}
{"variant": "MTVEPEAPDAHFTVDKQNISLWPR", "note": "[K5P]", "protein stability index": 3.48}
{"variant": "MTVEWEAPDAHFTVDKQNISLWPR", "note": "[K5W]", "protein stability index": 2.04}
{"variant": "MTVEREAPDAHFTVDKQNISLWPR", "note": "[K5R]", "protein stability index": 2.94}
{"variant": "MTVEYEAPDAHFTVDKQNISLWPR", "note": "[K5Y]", "protein stability index": 1.99}
{"variant": "MTVEIEAPDAHFTVDKQNISLWPR", "note": "[K5I]", "protein stability index": 1.95}
{"variant": "MTVECEAPDAHFTVDKQNISLWPR", "note": "[K5C]", "protein stability index": 2.58}
{"variant": "MTVEFEAPDAHFTVDKQNISLWPR", "note": "[K5F]", "protein stability index": 2.02}
{"variant": "MTVESEAPDAHFTVDKQNISLWPR", "note": "[K5S]", "protein stability index": 3.04}
{"variant": "MTVEVEAPDAHFTVDKQNISLWPR", "note": "[K5V]", "protein stability index": 1.53}
{"variant": "MTVEDEAPDAHFTVDKQNISLWPR", "note": "[K5D]", "protein stability index": 3.48}
{"variant": "MTVEHEAPDAHFTVDKQNISLWPR", "note": "[K5H]", "protein stability index": 3.27}
{"variant": "MTVEGEAPDAHFTVDKQNISLWPR", "note": "[K5G]", "protein stability index": 3.79}
{"variant": "MTVETEAPDAHFTVDKQNISLWPR", "note": "[K5T]", "protein stability index": 2.89}
{"variant": "MTVENEAPDAHFTVDKQNISLWPR", "note": "[K5N]", "protein stability index": 3.13}
{"variant": "MTVEEEAPDAHFTVDKQNISLWPR", "note": "[K5E]", "protein stability index": 4.03}
{"variant": "MTVEAEAPDAHFTVDKQNISLWPR", "note": "[K5A]", "protein stability index": 2.96}
{"variant": "MTVEMEAPDAHFTVDKQNISLWPR", "note": "[K5M]", "protein stability index": 2.04}
